target: DLL4 extracellular domain (R&D systems, catalog #1506-D4/CF) (UniProt Q9NR61); test: cell-based or functional assay
Sequence (Q9NR61 27-529 limits assumed): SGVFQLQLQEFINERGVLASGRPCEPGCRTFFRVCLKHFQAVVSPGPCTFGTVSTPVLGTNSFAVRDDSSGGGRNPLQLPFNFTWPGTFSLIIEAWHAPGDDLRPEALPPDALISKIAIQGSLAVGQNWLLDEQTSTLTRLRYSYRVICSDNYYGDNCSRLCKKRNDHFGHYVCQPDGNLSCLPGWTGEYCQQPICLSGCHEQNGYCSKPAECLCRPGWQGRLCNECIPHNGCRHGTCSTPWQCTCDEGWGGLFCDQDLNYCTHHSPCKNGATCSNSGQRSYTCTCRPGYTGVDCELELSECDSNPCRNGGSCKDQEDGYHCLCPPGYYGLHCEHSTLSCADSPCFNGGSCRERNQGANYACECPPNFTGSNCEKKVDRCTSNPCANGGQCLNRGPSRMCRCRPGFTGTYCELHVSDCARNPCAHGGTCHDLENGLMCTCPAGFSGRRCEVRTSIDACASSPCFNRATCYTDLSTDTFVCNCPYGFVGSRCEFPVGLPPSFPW

% inhibition 1 µg/ml, AVERAGE (HUVEC proliferation on coated DLL4)	% inhibition 1 µg/ml, N = 1 (HUVEC proliferation on coated DLL4)	% inhibition 1 µg/ml, N = 2 (HUVEC proliferation on coated DLL4)	% inhibition 10 µg/ml, AVERAGE (HUVEC proliferation on coated DLL4)	% inhibition 10 µg/ml, N = 1 (HUVEC proliferation on coated DLL4)	% inhibition 10 µg/ml, N = 2 (HUVEC proliferation on coated DLL4)	Binder
85%	94%	75%	98%	103%	93%	20G8 (antibody, IgG4, V domains shown) VH: QVQLVQSGAEVKKPGASVKVSCKASGYTFTSYGISWVRQAPGQGLEWMGWISVYNGNTNYAQKLQGRVTMTTDTSTSTAYMEVRSLRSDDTAVYYCARDRVPRIPRTTEAFDIWGRGTMVTVCS VL: QSVLTQPPSASGTPGQRVTISCSGSSSNIGSYYVYWYQQLPGTAPKLLIYRDNQRPSGVPDRFSGSKSGTSASLAIRGLRSDDEADYYCAAWDDSLSGHWVFGGGTKLTVL

target: full length cynomolgus monkey DLL4 (cynomolgus monkey); test: FACS titration, HEK293 cells with cynomolgus DLL4

Kd	Binder
0.081 nM	4B4 IgG1 (antibody, V domains shown) VH: QVLLIQSGAEVKKPGASVQVSCKASGYTFTNYGVIWVRQAPGQGLEYMGWISAYNGNTNYAQKLQDRVTMTSDTSTTTAYMELRSLRSDDTAVYYCARELGSSFDYWGQGTLVTVSS VL: SYELTQPPSVSVSPGQTARITCSGDALPKKYAYWYQQKSGQAPVLVIYEDIKRPSGIPERFSGSSSGTMATLTISGAQVEDEADYYCFSTDNSGDHSVFGGGTKLTVL

target: full length cynomolgus monkey DLL4 (cynomolgus monkey); test: FMAT, hybridoma supernatant, 293T cells with cynomolgus DLL4

Binder	Count	FL1	FL1 x count
4B4 (antibody, IgG4, V domains shown) VH: QVLLIQSGAEVKKPGASVQVSCKASGYTFTNYGVIWVRQAPGQGLEYMGWISAYNGNTNYAQKLQDRVTMTSDTSTTTAYMELRSLRSDDTAVYYCARELGSSFDYWGQGTLVTVSS VL: SYELTQPPSVSVSPGQTARITCSGDALPKKYAYWYQQKSGQAPVLVIYEDIKRPSGIPERFSGSSSGTMATLTISGAQVEDEADYYCFSTDNSGDHSVFGGGTKLTVL	117	12300	1.04e+09
2H10 (antibody, IgG4, V domains shown) VH: QVQLVESGGGVVQPGRSLRLSCAASGFTFSRHGMHWVRQAPGKGLEWVAVVWFDGSNIYYADSVKGRFTISRDNSKNTLYLQMNSLRAEDTAMYYCARDSRIAAADYWGQGTLVTVSS VL: SYELTQPPSVSVSPGQTVSITCSGDKLGDKYVCWYQQKPGQSPVLVIYQESKRPSGIPERFSGSSSGNTATLTISGTQAMDEADYYCQTWDSSLVVFGGGTKLTVL	103	13100	1.35e+06
3A7 (antibody, IgG4, V domains shown) VH: EVQVVESGGGLVQPGGSLRLSCEASGFTFSNYWMIWVRQAPGKGLEWVASIKEDGSEKYYVDSVKGRFTISRDNAKSSLYLQMNSLRAEDTAVYYCVRDWELRGHYYYHGMDVWGQGTTVTVSS VL: DIQMTQSPSSLSASVGDRVTITCRASLDIRNDLGWFLQKPGKAPKRLIYAASSLQSGVPSRFSGSGSGTEFTLTINSLQPEDFATYYCLQHRNYPFTFGPGTKVDFK	121	9960	1.2e+06
9G8 (antibody, IgG4, V domains shown) VH: QLQLQESGPGLVKPSETLSLSCTVSGGSISSSSSYWGLIRQPPGKGLEWIGSIYYSGSTYYSPSLKSRVSISVDTSKNQFSLKLSSVTAADTAVYFCARQGYGGHPDVFDIWGQGTMVTVSS VL: SSELTQSPSVSVSPGQTARITCSGDKLGDVYVCWYQQKTGQSPVLVIYEDTKRPSGIPERFSGSNSGNTATLTISGTQVMDEADYYCQAWDSTTAVIFGGGTKLTVL	120	11700	1.41e+06
4B3 (antibody, IgG4, V domains shown) VH: QVQLVQSGAEVRKSGASVKVSCKASGYSFTTYDINWVRQATGQGLEWMGWMNPNSGYTDYAQKFQGRVTLTRNMSIDTAYMELSSLRSEDTAVYYCARAYYYDSSAYYLFDYWGQGTLVTVSS VL: DIQMTQSPSSLSASVGDRVTITCRASQGISNYLAWFQQKPGKAPKSLIYAASSLQSGVPSKFSGSGSGTDFTLTISSLQPEDFATYFCQQYISYPLTFGGGTKVEI	97	12600	1.22e+06
1D4 (antibody, IgG4, V domains shown) VH: QLQLQESGPGLVKPSETLSLTCTVSGGSISSSSYYWGWIRQPPGKGLEWIGSFYYSRSTYYNPSLKSRVTISVDTSKNQFSLKLSSVTAADTAVHYCARGSIAVPDAFDIWGQGTMVTVSS VL: SYELTQPPSVSVSPGQTASITCSGDKLGDKFACWYQQKPGHSPVLVVYQDNKRPSGIPERFSGSNSGNSATLTISGTQAMDEADYYCQAWDSNTAVFGGGTKLTVL	103	11700	1.21e+06

Second part, the binder after the results:

Count	FL1	FL1 x count	Binder
106	12900	1.37e+06	12A1 (antibody, IgG4, V domains shown) VH: QVQLVQSGAEVKRPGASVKVSCKASGYTFTSYGITWVRQAPGQGLEYMGWISTYNGNTDYAQKFQGRVTMTADISTSTAYMELRSLRSDDTAVYYCARERGSYFDYWGQGTLVTVSS VL: SYELTQPPSVSVSPGQTARITCSGDTLPKKYAYWYQQKSGQAPVLVIYEDIKRPSGIPERFSGSSSGTMATLTISGAQVEDEADYYCFSTDSGGNHKFGGGTKLTVL
128	11200	1.44e+06	20G8 (antibody, IgG4, V domains shown) VH: QVQLVQSGAEVKKPGASVKVSCKASGYTFTSYGISWVRQAPGQGLEWMGWISVYNGNTNYAQKLQGRVTMTTDTSTSTAYMEVRSLRSDDTAVYYCARDRVPRIPRTTEAFDIWGRGTMVTVCS VL: QSVLTQPPSASGTPGQRVTISCSGSSSNIGSYYVYWYQQLPGTAPKLLIYRDNQRPSGVPDRFSGSKSGTSASLAIRGLRSDDEADYYCAAWDDSLSGHWVFGGGTKLTVL
120	10700	1.29e+06	17F3 (antibody, IgG2, V domains shown) VH: QVQLVQSGAEVKKPGASVKVSCKASGYTFTNYGISWVRQAPGQGLEWMGWINAYNGNTNYAQNLQGRVTMTTDTSTNTAYMELRSLRSDDTAVYYCARVAPAAFFDYWDQGTLVTVSS VL: SYELTQPPSVSVSPGQTASITCSGDKLGDKYVCWYQQKPGQSPVLVIYQDNKRPSGIPERFSGSNSGNTATLIISGTQAMDEADYYCQAWDSSTVFGGGTKLTVL

target: full length cynomolgus monkey DLL4 (cynomolgus monkey); test: FACS competition vs Notch1/Fc, HEK293 cells with cynomolgus DLL4

IC50	Binder
0.5 nM	4B4 IgG1 (antibody, V domains shown) VH: QVLLIQSGAEVKKPGASVQVSCKASGYTFTNYGVIWVRQAPGQGLEYMGWISAYNGNTNYAQKLQDRVTMTSDTSTTTAYMELRSLRSDDTAVYYCARELGSSFDYWGQGTLVTVSS VL: SYELTQPPSVSVSPGQTARITCSGDALPKKYAYWYQQKSGQAPVLVIYEDIKRPSGIPERFSGSSSGTMATLTISGAQVEDEADYYCFSTDNSGDHSVFGGGTKLTVL

From US20100196385A1
